This is an account of results in publication PMC9292107.

This assay deals with caveolin-3 (Cav3) (mouse (endogenous in cardiomyocytes)) (UniProt P51637). Nature of the assay: co-IP; endogenous proteins in extracts of mouse cardiomyocytes / heart (WT; for actin-Cav3 also SM22α KO); IgG as negative control; Western blot. For orientation: A western blot detects proteins with antibodies after separation by electrophoresis.
UniProt P51637, sequence (P51637 whole entry): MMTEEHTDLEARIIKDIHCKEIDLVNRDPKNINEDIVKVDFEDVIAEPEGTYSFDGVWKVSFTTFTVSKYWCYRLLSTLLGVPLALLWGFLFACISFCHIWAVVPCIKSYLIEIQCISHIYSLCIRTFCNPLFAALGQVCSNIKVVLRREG

Take “α-actin (from UniProt P68033 1-377) (natural protein)”: the reduction of the co-precipitate in SM22α KO against WT cardiomyocytes turned out to be 34%.
